Several values for one entry are separate records, joined by “and”; a condition that tells them apart may be missing. Equal entries are not always repeated.

Test [1] concerns the target Human PD-L1 mouse Fc fusion protein (human, UniProt Q9NZQ7 19-238). In words: ELISA.
For test [2], the target named is PD-L1 on H1975 human lung adenocarcinoma cells (human (on H1975 cells), UniProt Q9NZQ7 19-290). Description: ELISA.
Sequence of PD-L1 on H1975 human lung adenocarcinoma cells (Q9NZQ7 19-290): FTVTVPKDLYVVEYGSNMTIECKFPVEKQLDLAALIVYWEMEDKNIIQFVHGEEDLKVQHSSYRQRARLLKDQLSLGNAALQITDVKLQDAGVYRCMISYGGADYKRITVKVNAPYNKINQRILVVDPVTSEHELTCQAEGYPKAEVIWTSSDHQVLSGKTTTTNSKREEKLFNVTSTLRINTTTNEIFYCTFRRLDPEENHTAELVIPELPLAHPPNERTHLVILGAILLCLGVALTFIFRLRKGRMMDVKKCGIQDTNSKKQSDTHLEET

Sequence of Human PD-L1 mouse Fc fusion protein (Q9NZQ7 19-238): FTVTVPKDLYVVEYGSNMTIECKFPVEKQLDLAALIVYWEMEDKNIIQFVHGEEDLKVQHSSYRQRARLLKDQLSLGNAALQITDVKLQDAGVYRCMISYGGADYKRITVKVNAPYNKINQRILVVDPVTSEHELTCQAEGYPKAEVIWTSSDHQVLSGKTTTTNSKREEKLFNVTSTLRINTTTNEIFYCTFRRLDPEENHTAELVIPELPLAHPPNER

B1: mutPD-1Ig (Fc fusion, human, UniProt Q15116 21-161, looked up)
chain: PGWFLDSPDRPWNPPTFSPALLVVTEGDNATFTCSFSNTSESFVLNWYRMSPSNQTDKLAAFPEDRSQPGQDCRFRVTQLPNGRDFHMSVVRARRNDSGTYLCSAISLAPYIQIKESLRAELRVTERRAEVPTAHPSPSPR
As to B1, the EC50 in test [1] is 0.02 nM; in test [2], ~0.2 nM and 0.1 nM and 0.13 nM.

These data come from article PMC10621011 (ACS Omega, 2023).
